Laboratory results from patent US20180327506A1 (AbbVie / Abbott, published 2018).

T1: full-length mature human EMR2 (residues Q24-N823) with N-terminal aspartic acid/lysine epitope tag, … (human, UniProt Q9UHX3 24-823)
T1 sequence: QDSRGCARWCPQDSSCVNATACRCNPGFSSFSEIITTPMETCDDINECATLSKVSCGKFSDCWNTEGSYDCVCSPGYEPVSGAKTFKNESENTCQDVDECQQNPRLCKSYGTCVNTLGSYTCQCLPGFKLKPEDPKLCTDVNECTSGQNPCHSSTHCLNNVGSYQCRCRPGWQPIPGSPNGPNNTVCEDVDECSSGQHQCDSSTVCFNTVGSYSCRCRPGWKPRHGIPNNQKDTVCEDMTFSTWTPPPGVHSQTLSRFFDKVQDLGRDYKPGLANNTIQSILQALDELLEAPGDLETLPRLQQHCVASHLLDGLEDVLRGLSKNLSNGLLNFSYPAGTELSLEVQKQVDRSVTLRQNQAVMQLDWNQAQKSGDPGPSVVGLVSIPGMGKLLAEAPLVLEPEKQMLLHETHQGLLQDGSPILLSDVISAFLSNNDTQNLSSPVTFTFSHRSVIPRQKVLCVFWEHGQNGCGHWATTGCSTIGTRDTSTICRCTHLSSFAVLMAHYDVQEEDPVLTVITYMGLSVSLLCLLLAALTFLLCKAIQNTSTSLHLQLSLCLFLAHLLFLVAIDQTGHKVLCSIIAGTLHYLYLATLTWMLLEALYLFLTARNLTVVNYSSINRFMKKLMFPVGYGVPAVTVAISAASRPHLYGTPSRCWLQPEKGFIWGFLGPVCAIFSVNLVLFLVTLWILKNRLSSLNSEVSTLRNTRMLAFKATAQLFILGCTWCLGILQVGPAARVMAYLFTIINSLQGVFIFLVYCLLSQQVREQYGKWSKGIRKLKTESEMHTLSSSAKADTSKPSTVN

T2: full-length mature cynomolgus EMR2 (residues Q24-N816) with N-terminal aspartic acid/lysine epitope tag, … (cynomolgus monkey (Macaca fascicularis), UniProt A0A2K5WL23 21-816)
T2 sequence: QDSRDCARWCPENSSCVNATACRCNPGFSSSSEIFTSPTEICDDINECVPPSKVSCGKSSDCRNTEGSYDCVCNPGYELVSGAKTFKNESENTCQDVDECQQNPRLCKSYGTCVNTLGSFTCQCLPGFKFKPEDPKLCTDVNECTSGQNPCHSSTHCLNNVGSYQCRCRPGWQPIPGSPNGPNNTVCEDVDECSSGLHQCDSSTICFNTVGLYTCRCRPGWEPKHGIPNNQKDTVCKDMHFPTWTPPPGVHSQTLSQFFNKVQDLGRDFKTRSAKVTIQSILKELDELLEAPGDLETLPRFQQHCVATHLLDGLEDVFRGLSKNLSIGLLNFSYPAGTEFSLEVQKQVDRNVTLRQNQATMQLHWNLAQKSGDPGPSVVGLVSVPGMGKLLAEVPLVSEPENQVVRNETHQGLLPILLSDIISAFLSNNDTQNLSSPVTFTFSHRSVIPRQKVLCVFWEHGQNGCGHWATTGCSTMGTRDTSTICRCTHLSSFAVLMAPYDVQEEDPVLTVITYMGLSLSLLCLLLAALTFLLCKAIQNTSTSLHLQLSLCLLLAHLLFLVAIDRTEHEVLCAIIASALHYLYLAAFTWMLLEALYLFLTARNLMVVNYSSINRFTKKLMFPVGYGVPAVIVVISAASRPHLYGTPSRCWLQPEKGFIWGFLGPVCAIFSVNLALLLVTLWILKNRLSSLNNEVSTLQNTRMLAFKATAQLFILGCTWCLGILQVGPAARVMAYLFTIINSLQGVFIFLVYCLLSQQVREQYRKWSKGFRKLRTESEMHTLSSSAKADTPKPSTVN

T3: full-length mature human CD97 (residues Q21-I845) with N-terminal aspartic acid/lysine epitope tag, … (human, UniProt P48960 21-835)
T3 sequence (looked up): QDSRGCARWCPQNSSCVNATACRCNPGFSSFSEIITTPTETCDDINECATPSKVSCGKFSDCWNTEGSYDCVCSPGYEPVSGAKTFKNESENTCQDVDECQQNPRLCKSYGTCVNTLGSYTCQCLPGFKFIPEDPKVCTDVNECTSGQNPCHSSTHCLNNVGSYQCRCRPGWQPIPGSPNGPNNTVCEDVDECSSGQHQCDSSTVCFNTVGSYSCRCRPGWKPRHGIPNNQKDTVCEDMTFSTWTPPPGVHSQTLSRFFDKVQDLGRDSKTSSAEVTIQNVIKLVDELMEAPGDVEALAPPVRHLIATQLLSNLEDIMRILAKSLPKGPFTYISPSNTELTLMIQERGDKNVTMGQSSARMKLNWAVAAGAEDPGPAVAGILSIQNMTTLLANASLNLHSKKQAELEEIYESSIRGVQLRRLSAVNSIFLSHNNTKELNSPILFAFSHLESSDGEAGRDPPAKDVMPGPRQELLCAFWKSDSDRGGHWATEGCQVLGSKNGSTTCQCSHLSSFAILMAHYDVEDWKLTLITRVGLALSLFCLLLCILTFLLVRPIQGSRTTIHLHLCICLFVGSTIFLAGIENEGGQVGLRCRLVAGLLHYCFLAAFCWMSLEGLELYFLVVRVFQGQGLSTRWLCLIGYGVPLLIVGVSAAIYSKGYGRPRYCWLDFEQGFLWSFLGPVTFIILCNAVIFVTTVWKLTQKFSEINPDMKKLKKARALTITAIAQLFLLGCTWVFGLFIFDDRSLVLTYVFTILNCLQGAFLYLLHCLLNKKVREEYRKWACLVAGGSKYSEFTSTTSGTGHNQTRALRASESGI

T4: human EMR2 as naturally expressed on primary and PDX tumor cells, blood and bone marrow cells and hematologic … (human, UniProt Q9UHX3 24-823)
T4 construct: Endogenous protein; also called hEMR2; CD312
T4 sequence: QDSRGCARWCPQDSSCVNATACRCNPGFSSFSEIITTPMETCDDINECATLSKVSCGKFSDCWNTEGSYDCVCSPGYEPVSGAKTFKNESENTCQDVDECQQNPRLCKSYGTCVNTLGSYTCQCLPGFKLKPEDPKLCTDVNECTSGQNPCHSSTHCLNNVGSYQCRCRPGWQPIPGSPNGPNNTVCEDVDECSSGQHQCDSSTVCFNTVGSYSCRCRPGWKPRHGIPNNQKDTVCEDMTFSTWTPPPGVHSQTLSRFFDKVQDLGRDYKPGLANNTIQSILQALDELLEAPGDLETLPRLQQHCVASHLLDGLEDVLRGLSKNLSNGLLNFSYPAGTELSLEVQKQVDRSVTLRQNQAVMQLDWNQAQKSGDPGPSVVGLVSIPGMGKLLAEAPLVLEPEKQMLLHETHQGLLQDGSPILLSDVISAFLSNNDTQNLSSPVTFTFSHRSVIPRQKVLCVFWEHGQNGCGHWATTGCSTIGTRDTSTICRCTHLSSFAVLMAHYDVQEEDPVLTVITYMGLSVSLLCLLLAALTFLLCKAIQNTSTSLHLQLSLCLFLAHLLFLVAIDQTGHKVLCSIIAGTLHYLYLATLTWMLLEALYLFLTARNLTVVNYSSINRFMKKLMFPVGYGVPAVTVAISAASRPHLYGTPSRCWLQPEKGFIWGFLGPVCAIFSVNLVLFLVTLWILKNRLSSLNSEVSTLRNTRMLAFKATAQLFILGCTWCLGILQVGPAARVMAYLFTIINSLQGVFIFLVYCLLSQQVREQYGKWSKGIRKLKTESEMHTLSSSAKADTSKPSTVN

B1: SC93.256 (antibody, IgG2a, V domains shown)
VH: EVKLEESGGGLVQPGGSMKLSCAASGFTFSDAWMDWVRQSPEKGLEWVAEIRSKVNNHETYYAESVKGRFTISRDDSKSSVYLQMNSLRAEDTGIYYCIRNDYFDYWGQGTTLTVSS
VL: DIQMTQTTSSLSASLGDRVTISCSASQGIRNYLNWYQQKPDGTVKLLIYYTSRLHSGVPSRFSGSGSGTDYSLTISNLEPEDIATYYCQQYGKLPYTFGGGTKLEIK
notes: murine, IgG2a
B2: SC93.255 (antibody, V domains shown)
VH: QVQLQQSDAELVKPGSSVKISCKVSGFTFTDHTIHWMKQRPEQGLEWIGYIYPRDGNTKYNEKFTGKATLTADRSSSTAYMQLNSLTSEDSAVYFCASSNWAQWYFDIWGTGTTVTVSS
VL: DIQMTQSSSYLSVSLGGRVTITCKASDHINNWLAWYQQKPGNAPRLLIFGATSLETGVPSRFSGSGSGKDYTLSITSLQSEDVGTYYCQQYWSIPYTFGGGTKLEIK
notes: Murine hybridoma antibody with a kappa light chain
B3: SC93.267 (antibody, V domains shown)
VH: EVQLQQSGPELVKPGASVRMSCKASGYTFTDYNMYWVKQSLGKSLEWIGYIYPNTGGATYNQKFKGKATLTVNKSSSTAFMELRSLTSEDSAVYYCGRGGLGPFAYWGQGTLVTVSA
VL: DIQMTQSPSSLSASLGGKVTITCRASQDINKFISWYQHRPGKGPRLLIHYASTLQPGIPSRFSGSGSGRDYSFSISNLEPEDIATYYCLQYDNLWTFGGGTKLEIR
notes: Murine hybridoma antibody with a kappa light chain; also called anti-hEMR2 antibody SC93.267

Legend:
[1] = target: T1, full-length mature human EMR2 (residues …); assay: cell-based or functional assay
[2] = target: T2, full-length mature cynomolgus EMR2 …; assay: cell-based or functional assay
[3] = target: T3, full-length mature human CD97 (residues …); assay: cell-based or functional assay
[4] = target: T1, full-length mature human EMR2 (residues …); assay: flow cytometry on transduced HEK293T; 293 naive MFI 109
Description: (§1) The exemplary antibodies were also tested using flow cytometry to determine their ability to associate with hEMR2, cEMR2 and CD97 expressed on the surface of cells.

[5] = target: T2, full-length mature cynomolgus EMR2 …; assay: as above
Description: as §1

[6] = target: T3, full-length mature human CD97 (residues …); assay: as above
Description: as §1

[7] = target: T1, full-length mature human EMR2 (residues …); assay: flow cytometry on transduced HEK293T; 293 naive MFI 269
Description: as §1

[8] = target: T2, full-length mature cynomolgus EMR2 …; assay: as above
Description: as §1

[9] = target: T3, full-length mature human CD97 (residues …); assay: as above
Description: as §1

[10] = target: T4, human EMR2 as naturally expressed on …; assay: flow cytometry on AML33p0 cells, against isotype control
Description: (§2) AML PDX samples were harvested by extracting both femora and tibiae from a mouse. After removing any attached muscle tissue the bones were combined and grinded up using a mortar and pistil to release the bone marrow from the rest of the bone. Cell suspensions were harvested and red blood cells lysed by exposure to a hypotonic ammonium-chloride-potassium solution (ACK). After 5 min incubation on ice the red blood cell lysis was stopped by adding 2% fetal bovine serum in PBS buffer (FSM), cells harvested by centrifugation and any tissue debris filtered out using a nylon mesh. Primary human AML samples were obtained cryopreserved as Ficol isolated mononuclear cells, thawed, washed once in FSM and used for analysis. Single cell suspensions were incubated with 4′,6-diamidino-2-phenylindole (DAPI) to detect dead cells, anti-human CD45 and CD33 to identify human leukemic cells. […] In order to partition bulk AML leukemic populations into NTG and CSC subpopulations, the PDX tumor cells were further incubated with anti-human CD34 and CD38 or candidate AML CSC markers.

[11] = target: T4, human EMR2 as naturally expressed on …; assay: flow cytometry on AML37p0 cells, against isotype control
Description: as §2

[12] = target: T4, human EMR2 as naturally expressed on …; assay: flow cytometry on AML40p0 cells, against isotype control
Description: AML PDX samples were harvested by extracting both femora and tibiae from a mouse. After removing any attached muscle tissue the bones were combined and grinded up using a mortar and pistil to release the bone marrow from the rest of the bone. Cell suspensions were harvested and red blood cells lysed by exposure to a hypotonic ammonium-chloride-potassium solution (ACK). After 5 min incubation on ice the red blood cell lysis was stopped by adding 2% fetal bovine serum in PBS buffer (FSM), cells harvested by centrifugation and any tissue debris filtered out using a nylon mesh. Primary human AML samples were obtained cryopreserved as Ficol isolated mononuclear cells, thawed, washed once in FSM and used for analysis. Single cell suspensions were incubated with 4′,6-diamidino-2-phenylindole (DAPI) to detect dead cells, anti-human CD45 and CD33 to identify human leukemic cells. The resulting single cell suspensions comprised a bulk sample of tumor and non-tumor cells including both NTG cells and CSCs. In order to partition bulk AML leukemic populations into NTG and CSC subpopulations, the PDX tumor cells were further incubated with anti-human CD34 and CD38 or candidate AML CSC markers.

[13] = target: T4, human EMR2 as naturally expressed on …; assay: flow cytometry on AML20p4 PDX cells, against isotype control
Description: as §2

[14] = target: T4, human EMR2 as naturally expressed on …; assay: flow cytometry on AML23p2 PDX cells, against isotype control
Description: as §2

[15] = target: T4, human EMR2 as naturally expressed on …; assay: flow cytometry on AML16-p4 PDX cells, against isotype control
Description: as §2

[16] = target: T1, full-length mature human EMR2 (residues …); assay: flow cytometry on transduced HEK293T; 293 naive MFI 143
Description: as §1

[17] = target: T2, full-length mature cynomolgus EMR2 …; assay: as above
Description: as §1

[18] = target: T3, full-length mature human CD97 (residues …); assay: as above
Description: as §1

Binder | % live, FAB-saporin killing assay [1] [%] | % live, FAB-saporin killing assay [2] [%] | % live, FAB-saporin killing assay [3] [%] | FC MFI [4] | FC MFI [5] | FC MFI [6] | FC MFI [7] | FC MFI [8] | FC MFI [9] | ΔgMFI [10] | ΔgMFI [11] | ΔgMFI [12] | ΔgMFI [13] | ΔgMFI [14] | ΔgMFI [15] | FC MFI [16] | FC MFI [17] | FC MFI [18]
B1 | 12.5 | 12.3 | 92.4 | 42600 | 37600 | 88.3 | – | – | – | – | – | – | – | – | – | – | – | –
B2 | 12.1 | 9.63 | 9.09 | – | – | – | 36400 | 43800 | 43300 | – | – | – | – | – | – | – | – | –
B3 | 15.6 | 27.8 | 89 | – | – | – | – | – | – | 457 | 1610 | 2000 | 475 | 547 | 898 | 36600 | 38700 | 132
